Columns and labels:
[1] = system: HeLa Kyoto; assay: solubility in G1/S (NP-40 vs SDS abundance) (log2 ratio); higher = more soluble; details: cell cycle stage: G1/S
[2] = system: HeLa Kyoto; assay: melting temperature (median over replicates), in situ; higher = more thermally stable
[3] = system: HeLa Kyoto; assay: thermal stability score vs G1/S (z-score of summed log2 fold changes over temperatures); higher = more thermally stable than in G1/S
[4] = system: HeLa Kyoto; assay: solubility change mitosis vs G1/S (difference of NP-40 vs SDS log2 ratios) (log2 ratio difference); higher = more soluble in mitosis
[5] = cell cycle stage: early G1 (4.5 h after nocodazole release)
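Throughout, for melting temperature (median over replicates), in situ: HeLa Kyoto cells synchronized by double thymidine or nocodazole block, proteins quantified by TMT10plex mass spectrometry, three independent biological replicates.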
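Throughout, for solubility change mitosis vs G1/S (difference of NP-40 vs SDS log2 ratios): synchronized HeLa Kyoto cells (double thymidine block for G1/S, nocodazole release for mitosis), protein amounts in NP-40 versus SDS lysates quantified by mass spectrometry, three biological replicates.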
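Throughout, for solubility in G1/S (NP-40 vs SDS abundance): HeLa Kyoto cells arrested at G1/S by double thymidine block, proteins quantified by TMT10plex mass spectrometry in mild NP-40 versus SDS extracts, three biological replicates.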
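Throughout, for thermal stability score vs G1/S (z-score of summed log2 fold changes over temperatures): synchronized HeLa Kyoto cells, proteins quantified by TMT10plex mass spectrometry, three biological replicates, mitosis taken 0.5 h after nocodazole release, G1/S directly after double thymidine block.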

Substance	solubility in G1/S (log2) [1]	melting temperature ([2]; cell cycle stage: G1/S)	melting temperature ([2]; cell cycle stage: mitosis)	thermal stability score [3, 5]	thermal stability score ([3]; cell cycle stage: mitosis)	solubility change mitosis (log2) [4]
MGDTVVEPAPLKPTSEPTSGPPGNNGGSLLSVITEGVGELSVIDPEVAQKACQEVLEKVKLLHGGVAVSSRGTPLELVNGDGVDSEIRCLDDPPAQIREEEDEMGAAVASGTAKGARRRRQNNSAKQSWLLRLFESKLFDISMAISYLYNSKEPGVQAYIGNRLFCFRNEDVDFYLPQLLNMYIHMDEDVGDAIKPYIVHRCRQSINFSLQCALLLGAYSSDMHISTQRHSRGTKLRKLILSDELKPAHRKRELPSLSPAPDTGLSPSKRTHQRSKSDATASISLSSNLKRTASNPKVENEDEELSSSTESIDNSFSSPVRLAPEREFIKSLMAIGKRLATLPTKEQKTQRLISELSLLNHKLPARVWLPTAGFDHHVVRVPHTQAVVLNSKDKAPYLIYVEVLECENFDTTSVPARIPENRIRSTRSVENLPECGITHEQRAGSFSTVPNYDNDDEAWSVDDIGELQVELPEVHTNSCDNISQFSVDSITSQESKEPVFIAAGDIRRRLSEQLAHTPTAFKRDPEDPSAVALKEPWQEKVRRIREGSPYGHLPNWRLLSVIVKCGDDLRQELLAFQVLKQLQSIWEQERVPLWIKPYKILVISADSGMIEPVVNAVSIHQVKKQSQLSLLDYFLQEHGSYTTEAFLSAQRNFVQSCAGYCLVCYLLQVKDRHNGNILLDAEGHIIHIDFGFILSSSPRNLGFETSAFKLTTEFVDVMGGLDGDMFNYYKMLMLQGLIAARKHMDKVVQIVEIMQQGSQLPCFHGSSTIRNLKERFHMSMTEEQLQLLVEQMVDGSMRSITTKLYDGFQYLTNGIM [PI4KB]	0.00648	52.3 °C	52.2 °C	-0.522	-0.618	-0.221
MAAQCVRLARRSLPALALSLRPSPRLLCTATKQKNSGQNLEEDMGQSEQKADPPATEKTLLEEKVKLEEQLKETVEKYKRALADTENLRQRSQKLVEEAKLYGIQAFCKDLLEVADVLEKATQCVPKEEIKDDNPHLKNLYEGLVMTEVQIQKVFTKHGLLKLNPVGAKFDPYEHEALFHTPVEGKEPGTVALVSKVGYKLHGRTLRPALVGVVKEA [GRPEL1]	0.661	51.2 °C	51 °C	-2.01	-2.29	0.707
MALLLCFVLLCGVVDFARSLSITTPEEMIEKAKGETAYLPCKFTLSPEDQGPLDIEWLISPADNQKVDQVIILYSGDKIYDDYYPDLKGRVHFTSNDLKSGDASINVTNLQLSDIGTYQCKVKKAPGVANKKIHLVVLVKPSGARCYVDGSEEIGSDFKIKCEPKEGSLPLQYEWQKLSDSQKMPTSWLAEMTSSVISVKNASSEYSGTYSCTVRNRVGSDQCLLRLNVVPPSNKAGLIAGAIIGTLLALALIGLIIFCCRKKRREEKYEKEVHHDIREDVPPPKSRTSTARSYIGSNHSSLGSMSPSNMEGYSKTQYNQVPSEDFERTPQSPTLPPAKVAAPNLSRMGAIPVMIPAQSKDGSIV [CXADR]	0.245	59.4 °C	57.6 °C	-1.74	-2.2	-0.112
MSLSNKLTLDKLDVKGKRVVMRVDFNVPMKNNQITNNQRIKAAVPSIKFCLDNGAKSVVLMSHLGRPDGVPMPDKYSLEPVAVELKSLLGKDVLFLKDCVGPEVEKACANPAAGSVILLENLRFHVEEEGKGKDASGNKVKAEPAKIEAFRASLSKLGDVYVNDAFGTAHRAHSSMVGVNLPQKAGGFLMKKELNYFAKALESPERPFLAILGGAKVADKIQLINNMLDKVNEMIIGGGMAFTFLKVLNNMEIGTSLFDEEGAKIVKDLMSKAEKNGVKITLPVDFVTADKFDENAKTGQATVASGIPAGWMGLDCGPESSKKYAEAVTRAKQIVWNGPVGVFEWEAFARGTKALMDEVVKATSRGCITIIGGGDTATCCAKWNTEDKVSHVSTGGGASLELLEGKVLPGVDALSNI [PGK1]	0.376	53.8 °C	53.9 °C	1.07	0.993	-0.0583
MTKAGSKGGNLRDKLDGNELDLSLSDLNEVPVKELAALPKATILDLSCNKLTTLPSDFCGLTHLVKLDLSKNKLQQLPADFGRLVNLQHLDLLNNKLVTLPVSFAQLKNLKWLDLKDNPLDPVLAKVAGDCLDEKQCKQCANKVLQHMKAVQADQERERQRRLEVEREAEKKREAKQRAKEAQERELRKREKAEEKERRRKEYDALKAAKREQEKKPKKEANQAPKSKSGSRPRKPPPRKHTRSWAVLKLLLLLLLFGVAGGLVACRVTELQQQPLCTSVNTIYDNAVQGLRRHEILQWVLQTDSQQ [LRRC59]	0.751	56.7 °C	54 °C	2.96	-1.3	0.236
MFAEAAKTTRPCGMAEFKEKPEAPTEQLDVACGQENLPVGAWPPGAAPAPFQYTPDHVVGPGADIDPTQITFPGCICVKTPCLPGTCSCLRHGENYDDNSCLRDIGSGGKYAEPVFECNVLCRCSDHCRNRVVQKGLQFHFQVFKTHKKGWGLRTLEFIPKGRFVCEYAGEVLGFSEVQRRIHLQTKSDSNYIIAIREHVYNGQVMETFVDPTYIGNIGRFLNHSCEPNLLMIPVRIDSMVPKLALFAAKDIVPEEELSYDYSGRYLNLTVSEDKERLDHGKLRKPCYCGAKSCTAFLPFDSSLYCPVEKSNISCGNEKEPSMCGSAPSVFPSCKRLTLETMKMMLDKKQIRAIFLFEFKMGRKAAETTRNINNAFGPGTANERTVQWWFKKFCKGDESLEDEERSGRPSEVDNDQLRAIIEADPLTTTREVAEELNVNHSTVVRHLKQIGKVKKLDKWVPHELTENQKNRRFEVSSSLILRNHNEPFLDRIVTCDEKWILYDNRRRSAQWLDQEEAPKHFPKPILHPKKVMVTIWWSAAGLIHYSFLNPGETITSEKYAQEIDEMNQKLQRLQLALVNRKGPILLHDNARPHVAQPTLQKLNELGYEVLPHPPYSPDLLPTNYHVFKHLNNFLQGKRFHNQQDAENAFQEFVESQSTDFYATGINQLISRWQKCVDCNGSYFD [SETMAR]	-0.0719	51.9 °C	51.7 °C	1.42	0.689	-0.0662
MAPSSPRPALPALLVLLGALFPGPGNAQTSVSPSKVILPRGGSVLVTCSTSCDQPKLLGIETPLPKKELLLPGNNRKVYELSNVQEDSQPMCYSNCPDGQSTAKTFLTVYWTPERVELAPLPSWQPVGKNLTLRCQVEGGAPRANLTVVLLRGEKELKREPAVGEPAEVTTTVLVRRDHHGANFSCRTELDLRPQGLELFENTSAPYQLQTFVLPATPPQLVSPRVLEVDTQGTVVCSLDGLFPVSEAQVHLALGDQRLNPTVTYGNDSFSAKASVSVTAEDEGTQRLTCAVILGNQSQETLQTVTIYSFPAPNVILTKPEVSEGTEVTVKCEAHPRAKVTLNGVPAQPLGPRAQLLLKATPEDNGRSFSCSATLEVAGQLIHKNQTRELRVLYGPRLDERDCPGNWTWPENSQQTPMCQAWGNPLPELKCLKDGTFPLPIGESVTVTRDLEGTYLCRARSTQGEVTRKVTVNVLSPRYEIVIITVVAAAVIMGTAGLSTYLYNRQRKIKKYRLQQAQKGTPMKPNTQATPP [ICAM1]	0.303	56.7 °C	58.8 °C	-2.15	-2.19	0.0971
MNGDSRAAVVTSPPPTTAPHKERYFDRVDENNPEYLRERNMAPDLRQDFNMMEQKKRVSMILQSPAFCEELESMIQEQFKKGKNPTGLLALQQIADFMTTNVPNVYPAAPQGGMAALNMSLGMVTPVNDLRGSDSIAYDKGEKLLRCKLAAFYRLADLFGWSQLIYNHITTRVNSEQEHFLIVPFGLLYSEVTASSLVKINLQGDIVDRGSTNLGVNQAGFTLHSAIYAARPDVKCVVHIHTPAGAAVSAMKCGLLPISPEALSLGEVAYHDYHGILVDEEEKVLIQKNLGPKSKVLILRNHGLVSVGESVEEAFYYIHNLVVACEIQVRTLASAGGPDNLVLLNPEKYKAKSRSPGSPVGEGTGSPPKWQIGEQEFEALMRMLDNLGYRTGYPYRYPALREKSKKYSDVEVPASVTGYSFASDGDSGTCSPLRHSFQKQQREKTRWLNSGRGDEASEEGQNGSSPKSKTKWTKEDGHRTSTSAVPNLFVPLNTNPKEVQEMRNKIREQNLQDIKTAGPQSQVLCGVVMDRSLVQGELVTASKAIIEKEYQPHVIVSTTGPNPFTTLTDRELEEYRREVERKQKGSEENLDEAREQKEKSPPDQPAVPHPPPSTPIKLEEDLVPEPTTGDDSDAATFKPTLPDLSPDEPSEALGFPMLEKEEEAHRPPSPTEAPTEASPEPAPDPAPVAEEAAPSAVEEGAAADPGSDGSPGKSPSKKKKKFRTPSFLKKSKKKSDS [ADD1]	0.119	55.2 °C	55.1 °C	-4.45	-3.29	0.0666
MVSRPEPEGEAMDAELAVAPPGCSHLGSFKVDNWKQNLRAIYQCFVWSGTAEARKRKAKSCICHVCGVHLNRLHSCLYCVFFGCFTKKHIHEHAKAKRHNLAIDLMYGGIYCFLCQDYIYDKDMEIIAKEEQRKAWKMQGVGEKFSTWEPTKRELELLKHNPKRRKITSNCTIGLRGLINLGNTCFMNCIVQALTHTPLLRDFFLSDRHRCEMQSPSSCLVCEMSSLFQEFYSGHRSPHIPYKLLHLVWTHARHLAGYEQQDAHEFLIAALDVLHRHCKGDDNGKKANNPNHCNCIIDQIFTGGLQSDVTCQVCHGVSTTIDPFWDISLDLPGSSTPFWPLSPGSEGNVVNGESHVSGTTTLTDCLRRFTRPEHLGSSAKIKCSGCHSYQESTKQLTMKKLPIVACFHLKRFEHSAKLRRKITTYVSFPLELDMTPFMASSKESRMNGQYQQPTDSLNNDNKYSLFAVVNHQGTLESGHYTSFIRQHKDQWFKCDDAIITKASIKDVLDSEGYLLFYHKQFLEYE [USP22]	-0.542	48.1 °C	49.6 °C	0.773	1.56	-0.0588
MSSLSGKVQTVLGLVEPSKLGRTLTHEHLAMTFDCCYCPPPPCQEAISKEPIVMKNLYWIQKNAYSHKENLQLNQETEAIKEELLYFKANGGGALVENTTTGISRDTQTLKRLAEETGVHIISGAGFYVDATHSSETRAMSVEQLTDVLMNEILHGADGTSIKCGIIGEIGCSWPLTESERKVLQATAHAQAQLGCPVIIHPGRSSRAPFQIIRILQEAGADISKTVMSHLDRTILDKKELLEFAQLGCYLEYDLFGTELLHYQLGPDIDMPDDNKRIRRVRLLVEEGCEDRILVAHDIHTKTRLMKYGGHGYSHILTNVVPKMLLRGITENVLDKILIENPKQWLTFK [PTER]	0.0448	56.8 °C	57 °C	-2.92	-0.753	-0.0354
MSAGEVERLVSELSGGTGGDEEEEWLYGGPWDVHVHSDLAKDLDENEVERPEEENASANPPSGIEDETAENGVPKPKVTETEDDSDSDSDDDEDDVHVTIGDIKTGAPQYGSYGTAPVNLNIKTGGRVYGTTGTKVKGVDLDAPGSINGVPLLEVDLDSFEDKPWRKPGADLSDYFNYGFNEDTWKAYCEKQKRIRMGLEVIPVTSTTNKITAEDCTMEVTPGAEIQDGRFNLFKVQQGRTGNSEKETALPSTKAEFTSPPSLFKTGLPPSRNSTSSQSQTSTASRKANSSVGKWQDRYGRAESPDLRRLPGAIDVIGQTITISRVEGRRRANENSNIQVLSERSATEVDNNFSKPPPFFPPGAPPTHLPPPPFLPPPPTVSTAPPLIPPPGFPPPPGAPPPSLIPTIESGHSSGYDSRSARAFPYGNVAFPHLPGSAPSWPSLVDTSKQWDYYARREKDRDRERDRDRERDRDRDRERERTRERERERDHSPTPSVFNSDEERYRYREYAERGYERHRASREKEERHRERRHREKEETRHKSSRSNSRRRHESEEGDSHRRHKHKKSKRSKEGKEAGSEPAPEQESTEATPAE [FIP1L1]	-0.594	48.8 °C	49.9 °C	0.669	2.71	0.265
TRIOBP	0.139	49.1 °C	49.3 °C	0.418	1.17	0.0573

From the supplement of paper PMC5998384
